The values below come from patent publication US20130196320A1, “METHOD FOR IMPROVING CLEAVAGE OF DNA BY ENDONUCLEASE SENSITIVE TO METHYLATION” (CELLECTIS, priority 2010, published 2013).

Data set [1] has as its system XPC4 target CpG motives in 293H cells. The data set is described as follows: DNA methylation of XPC4 target by bisulfite treatment and sequencing, siRNA targeting DNMT1. Type of data set: cell-based, human. The conditions noted are these: for amount of unmethylated C, % of total: one of the two CpG of XPC4 target; for amount of unmethylated C: the other CpG of XPC4 target. From the text: FIG. 15: Chromatogram. In order to determine the methylation status of the two CpG motives present in the XPC4 target sequence, genomic DNA was extracted, and treated with bisulfite. Bisulfite treatment is based on a chemical reaction of sodium bisulfite with DNA that converts unmethylated cytosines into uracil whereas methylated cytosines remain unchanged. DNA was then amplified by PCR and sequenced. […] For one of the two CpG ([…]; SEQ ID NO: 24) the amount of unmethylated C was estimated to 20 and 30% of total after 1 nM and 5 nM of si_DNMT1, respectively. For the other CpG ([…]; SEQ ID NO: 24) the amount of unmethylated C was estimated to 25 and 50% after 1 nM and 5 nM of si_DNMT1, respectively.
(§1) The human 293H cells (ATCC) were plated at a density of 1.2×10^6 cells per 10 cm dish in complete medium (DMEM supplemented with 2 mM L-glutamine, penicillin (100 IU/ml), streptomycin (100 μg/ml), amphotericin B (Fongizone: 0.25 μg/ml, Invitrogen-Life Science) and 10% FBS). The next day, cells were transfected with 5 μg of empty vector pCLS003 (SEQ ID NO: 65) and 1 nM or 5 nM of si_DNMT1 composed of mixture of two siRNA DNMT1—1 ([…], SEQ ID NO: 66) and DNMT1—2 ([…], SEQ ID NO: 67) or with si_AS, a siRNA control with no known human target, using Lipofectamine 2000 as transfection reagent (Invitrogen) according to the manufacturer's protocol. The day after, cells were re-platted at the density of 1.2×10^6 cells per 10 cm. 24 hours after, cells were transfected again with 1 nM or 5 nM of siDNMT1 or si_AS in presence of 3 μg of meganuclease expressing vector (pCLS2510; SEQ ID NO: 68) and 2 μg of empty vector or 5 μg of empty vector (SEQ ID NO: 65), with Lipofectamine 2000 transfection reagent (Invitrogen) according to the manufacturer's protocol.
To assess the level DNA methylation, DNA sequencing was performed after a bisulfite treatment according to the instructions of the manufacturer (EZ DNA methylation-Gold Kit, Zymo Research). After genomic DNA extraction, the XPC4 target locus was amplified by PCR with specific primers

The subject of data set [2] is XPC4 target locus in 293H cells. Put plainly: Meganuclease-induced mutagenesis at XPC4 target locus by deep sequencing, siRNA targeting DNMT1. Type of data set: cell-based, human. The conditions noted are these: for mutagenesis, PCR fragments carrying a mutation: Empty vector. As to the method: as §1
After genomic DNA extraction, the XPC4 target locus was amplified with specific primers flanked by specific adaptator needed for HTS sequencing on the 454 sequencing system (454 Life Sciences)
5,000 to 10,000 sequences per sample were analyzed.

Data set [3] has as its target T1, ADCY9 meganuclease (I-CreI-derived) (Artificial Sequence).
T1 chain: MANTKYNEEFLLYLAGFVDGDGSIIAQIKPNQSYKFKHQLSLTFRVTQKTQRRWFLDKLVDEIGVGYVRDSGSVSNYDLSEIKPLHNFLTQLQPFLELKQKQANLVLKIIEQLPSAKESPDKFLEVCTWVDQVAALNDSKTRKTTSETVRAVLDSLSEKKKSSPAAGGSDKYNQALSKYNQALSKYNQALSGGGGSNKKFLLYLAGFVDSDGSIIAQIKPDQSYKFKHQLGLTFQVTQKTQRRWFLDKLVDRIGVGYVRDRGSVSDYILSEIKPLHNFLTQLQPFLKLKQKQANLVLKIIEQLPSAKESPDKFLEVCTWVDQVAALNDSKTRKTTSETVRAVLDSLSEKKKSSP
Put plainly: FP; 10 mM CaCl2, 150 mM NaCl, pH8, 25 C.

Data set [4] deals with T1, ADCY9 meganuclease (I-CreI-derived). Put plainly: FP; apparent Kd, sigmoidal binding; 10 mM CaCl2, 150 mM NaCl, pH8, 25 C.
For data set [5], the target named is T2, I-CreI wild type (Chlamydomonas reinhardtii, UniProt P05725 SEQ:1-163).
T2 sequence: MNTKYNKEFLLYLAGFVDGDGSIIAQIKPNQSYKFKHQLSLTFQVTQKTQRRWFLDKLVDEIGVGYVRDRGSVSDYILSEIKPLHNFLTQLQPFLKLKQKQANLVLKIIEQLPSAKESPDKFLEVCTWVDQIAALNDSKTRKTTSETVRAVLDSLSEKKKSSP
The data set is described as follows: FP; 400 mM NaCl, 10 mM CaCl2, pH8, 25 C; no saturation. The conditions noted are these: tags: C-terminal 6xHis, E. coli BL21; chain copies: 2 (inferred); label: 5' fluorescein on forward strand. Here is the method:
(§2) FIG. 4: Spectrofluorimetric titration of fluorescein-labeled C1234 by I-Cre I wild type. 25 nM of C1234 duplex was incubated with increasing concentrations of I-Cre I [from 0 to 400 nM, only 0-80 nM shown] in binding buffer (10 mM Tris-HCl, 400 mM NaCl, 10 mM CaCl₂, 10 mM DTT, pH8) at 25° C. After 30 minutes incubation, the fluorescence anisotropy of the mixture was recorded with a Pherastar Plus (BMG Labtech) operating in fluorescence polarization end point mode with excitation and emission wavelengths set to 495 and 520 nm respectively. Normalized fluorescence anisotropy is plotted as a function of active I-Cre I concentration. Apparent dissociation constant were determined by fitting raw data by an hyperbolic function (Aₓ=(A_{∞}*[Meganuclease])/(Kd+[Meganuclease]) with Aₓ, the fluorescence anisotropy value obtained at a given meganuclease concentration, A_{∞}, the fluorescence anisotropy value obtained at saturating concentration of meganuclease and Kd the dissociation constant of the equilibrium studied).
(§3) Fluorescein labeled C1234 oligonucleotides were synthesized and HPLC-purified by Eurogentec. […] C 1234 duplex and fluorescein final concentrations were assessed by spectrophotometry using their respective extinction coefficients ε₂₆₀ₙₘ=62900 M⁻¹ cm⁻¹ and ε₄₉₅ₙₘ=83000 M⁻¹ cm⁻¹. […]

The target of data set [6] is T2, I-CreI wild type. Put plainly: FP; 400 mM NaCl, 10 mM CaCl2, pH8, 25 C. The conditions noted are these: tags: C-terminal 6xHis, E. coli BL21; chain copies: 2 (inferred); label: 5' fluorescein on forward strand. As to the method: as §2
Fluorescein labeled C1234 oligonucleotides were synthesized and HPLC-purified by Eurogentec. To prepare C 1234 duplex corresponding to I-Cre I double strand DNA wild type target, C1234 forward (SEQ ID NO: 31, “a” strand below) labeled with Fluorescein on its 5′ end was mixed with 1 equivalent of C1234_reverse (SEQ ID NO: 32, “b” strand below) in 100 mM Tris-HCl, 50 mM EDTA, 150 mM NaCl, pH8. The mixture was heated to 95° C. for 2 min and then cooled down to 25° C. over 1 hour. C1234 duplex was eventually purified by anion exchange chromatography using a miniQ PE column (GE healthcare) pre-equilibrated with buffer A (20 mM Tris-HCl, pH7.4). Single stranded oligonucleotides and other contaminants were first discarded using a 0 to 360 mM NaCl step gradient and elution of pure C1234 duplex was performed with a 360-1000 mM NaCl linear gradient (5 column volumes). C 1234 duplex and fluorescein final concentrations were assessed by spectrophotometry using their respective extinction coefficients ε₂₆₀ₙₘ=62900 M⁻¹ cm⁻¹ and ε₄₉₅ₙₘ=83000 M⁻¹ cm⁻¹. […]

The target of the next data set is T3, I-CreI D75N (UniProt P05725 SEQ:1-167).
T3 chain: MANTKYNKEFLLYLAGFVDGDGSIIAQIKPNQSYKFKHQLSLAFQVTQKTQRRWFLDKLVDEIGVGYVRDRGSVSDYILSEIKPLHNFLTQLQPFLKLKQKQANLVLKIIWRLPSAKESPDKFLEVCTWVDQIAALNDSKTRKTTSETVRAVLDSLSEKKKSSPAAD
Put plainly: cleavage_in_vitro; relative to unmethylated C1221. The conditions noted are these: tags: C-terminal 6xHis, E. coli BL21; chain copies: 2 (inferred). Here is the method:
FIG. 3: In vitro cleavage of unmethylated or methylated C1221 by I-CreI D75N. 50 nM C1221 containing either 0, 1, 2 or 3 methylated CG was incubated with increasing concentrations of I-CreI D75N (0 to 2 μM) in reaction buffer (10 mM Tris-HCl, 150 mM NaCl, 10 mM MgCl₂, pH8) for an hour at 37° C. The reaction was stopped and cleaved and uncleaved C1221 (top and bottom panel respectively) were quantify and plotted as function of I-CreI D75N concentration.
To investigate the influence of C1221 methylation on the nuclease activity of I-CreI, an in vitro cleavage assay with either unmethylated or fully methylated C1221 duplex (SEQ ID NOs: 4-5 and 12-13 respectively) was performed. A constant amount of C1221 duplex (50 nM) was incubated with increasing concentration of I-CreI (0 to 2 μM) in a total volume of 25 μL of reaction buffer (10 mM Tris-HCl, 150 mM NaCl, 10 mM MgCl₂, pH8). Cleavage reaction was allowed to proceed 1 hour at 37° C. and then stopped by addition of 5 μL of 6× stop buffer (45% glycerol, 95 mM EDTA, 1.5% (w/v) SDS, 1.5 mg/mL proteinase K and 0.048% (w/v) bromophenol blue) followed by an hour incubation at 37° C. Cleaved and uncleaved DNA products were separated by PAGE using a TGX Any kD precast gel (Bio-Rad), stained with SYBR Green and then quantified using Quantity One software (Bio-Rad).
To investigate the influence of C1221 methylation on the nuclease activity of I-CreI D75N, in vitro cleavage assay with C1221 duplex containing either 0, 1, 2 or 3 methylated CG (SEQ ID NOs: 4-5, 6-7, 8-9, 10-11 respectively) was performed, according to the procedure described for I-CreI wild type.

Data set [7] concerns the target T2, I-CreI wild type. The data set is described as follows: FP; 10 mM Tris pH8, 400 mM NaCl, 10 mM CaCl2, 10 mM DTT, 25 C. The conditions noted are these: tags: C-terminal 6xHis, E. coli BL21; chain copies: 2 (inferred); label: 5' fluorescein on forward (a) strand. As to the method: as §2, §3

As to “si_DNMT1: mixture of two siRNA DNMT1—1 (SEQ ID NO: 66) and DNMT1—2 (SEQ ID NO: 67) targeting DNMT1 gene (chain 1 ACGGTGCTCATGCTTACAACC; chain 2 CCCAATGAGACTGACATCAAA; mixture of two siRNAs, further chemistry not given here)”, the “amount of unmethylated C, % of total” value in data set [1] (1 nM) was 20%; in data set [1] (5 nM), 30%. Further, the “amount of unmethylated C” value in data set [1] (1 nM) was found to be 25%; in data set [1] (5 nM) it was 50%. For the same molecule, the “mutagenesis, PCR fragments carrying a mutation” value was 0.022% in data set [2] (Si_DNMT1 1 nM) and 0.055% in data set [2] (Si_DNMT1 5 nM). Also, in data set [2] (empty vector, 1 or 5 nM of si_DNMT1), the “mutagenesis” value is listed as “low or absent”.

B1: ADCY9.1 (dsDNA)
DNA 1: CCCAGATGTCGTACAGCAGCTTGG
DNA 2: CCAAGCTGCTGTACGACATCTGGG
The molecule B1 showed a Kd in data set [3] of 190 nM.

B2: ADCY9.1_Me -3a/-2b (dsDNA)
DNA 1: CCCAGATGTCGTACAGCAGCTTGG
DNA 2: CCAAGCTGCTGTACGACATCTGGG
modifications: 5mC at -3a, -2b
As for B2, in data set [4], the Kd was determined as 431 nM.

B3: C1234_Me full (dsDNA)
DNA 1: TCAAAACGTCGTGAGACAGTTTGG
DNA 2: CCAAACTGTCTCACGACGTTTTGA
modifications: 5mC at -6a, -3a, -5b, -2b
In the case of B3, the Kd in the data set with I-CreI wild type [5] was above 1000 nM.

B4: C1234_Me-5b (dsDNA)
DNA 1: TCAAAACGTCGTGAGACAGTTTGG
DNA 2: CCAAACTGTCTCACGACGTTTTGA
modifications: 5mC at -5b
B4 returned a Kd with I-CreI wild type [6] of 24 nM.

B5: C1221_1Me (dsDNA)
DNA 1: GGGGTCAAAACGTCGTACGACGTTTTGAGGGG
DNA 2: CCCCTCAAAACGTCGTACGACGTTTTGACCCC
modifications: 5mC at 1 CpG on both strands
In the case of B5, the activity with I-CreI D75N is ~3 fold increase of C50.

B6: C1221_2Me (dsDNA)
DNA 1: B5 DNA 1
DNA 2: B5 DNA 2
modifications: 5mC at 2 CpG on both strands
For the molecule B6, the activity with I-CreI D75N is > 10 fold increase of C50.

B7: C1221_3Me (dsDNA)
DNA 1: B5 DNA 1
DNA 2: B5 DNA 2
modifications: 5mC at 3 CpG on both strands
For the molecule B7, the activity with I-CreI D75N is > 10 fold increase of C50.

B8: C1234_Me-6a/-3a (dsDNA)
DNA 1: TCAAAACGTCGTGAGACAGTTTGG
DNA 2: CCAAACTGTCTCACGACGTTTTGA
modifications: 5mC at -6a, -3a
In the data set with I-CreI wild type [6], B8 had a Kd of at most 2.5 nM.

B9: C1234_Me-5b/-2b (dsDNA)
DNA 1: TCAAAACGTCGTGAGACAGTTTGG
DNA 2: CCAAACTGTCTCACGACGTTTTGA
modifications: 5mC at -5b, -2b
In turn, B9 yielded a Kd in the data set with I-CreI wild type [5] above 1000 nM.

B10: C1234 (dsDNA)
DNA 1: TCAAAACGTCGTGAGACAGTTTGG
DNA 2: CCAAACTGTCTCACGACGTTTTGA
The molecule B10 registered a Kd with I-CreI wild type [7] of at most 2.5 nM.

B11: C1234_Me-2b (dsDNA)
DNA 1: TCAAAACGTCGTGAGACAGTTTGG
DNA 2: CCAAACTGTCTCACGACGTTTTGA
modifications: 5mC at -2b
Take B11: the Kd in the data set with I-CreI wild type [6] came out at 40.8 nM.
